In the assay the target is Recombinant Human LRP1 cluster III protein, Fc Tag (human) (UniProt Q07954). As to the kind of experiment: SPR; LRP1 cluster III-Fc captured on a Protein G chip (1800 RU); tau1N4R as analyte 0.012-1 μM, single-cycle kinetics; HBS-N with 0.005% P20 and 1 mM CaCl2; 1:1 Langmuir model.
Recombinant Human LRP1 cluster III protein, Fc Tag (human), sequence (Q07954 2522-2940): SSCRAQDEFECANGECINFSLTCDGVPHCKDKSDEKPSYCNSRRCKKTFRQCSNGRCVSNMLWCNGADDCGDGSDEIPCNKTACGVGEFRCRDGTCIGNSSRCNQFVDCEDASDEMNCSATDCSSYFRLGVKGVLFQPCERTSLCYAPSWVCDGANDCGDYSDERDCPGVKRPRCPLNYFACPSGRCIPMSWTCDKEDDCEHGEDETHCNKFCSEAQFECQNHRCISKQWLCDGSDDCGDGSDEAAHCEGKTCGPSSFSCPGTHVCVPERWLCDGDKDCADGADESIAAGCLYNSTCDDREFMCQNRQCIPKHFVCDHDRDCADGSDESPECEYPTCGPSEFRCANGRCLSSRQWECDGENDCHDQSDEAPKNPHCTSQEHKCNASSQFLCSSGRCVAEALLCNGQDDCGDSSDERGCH

For the substance “tau1N4R (from UniProt P10636-6 1-383) (natural protein)”, the Kd is 0.091 µM.

The values are drawn from PMC11965310.
